This passage reports stoichiometry N (Arp1 per dynamitin), stoichiometry N and stoichiometry N (p24 per 2 p150^Glued) results from article PMC2174220.

Assay [1] concerns the target dynamitin (p50) subunit of dynactin, endogenous bovine (bovine) (UniProt Q3ZCF0). As to the kind of experiment: co-sedimentation.
For assay [2], the target named is p62 subunit of dynactin (bovine). As to the kind of experiment: ion exchange chromatography.
The target in assay [3] is p150^Glued subunit of dynactin (bovine). As to the kind of experiment: co-sedimentation.

Sequence of p62 subunit of dynactin (bovine) (Q9QUR2 whole entry): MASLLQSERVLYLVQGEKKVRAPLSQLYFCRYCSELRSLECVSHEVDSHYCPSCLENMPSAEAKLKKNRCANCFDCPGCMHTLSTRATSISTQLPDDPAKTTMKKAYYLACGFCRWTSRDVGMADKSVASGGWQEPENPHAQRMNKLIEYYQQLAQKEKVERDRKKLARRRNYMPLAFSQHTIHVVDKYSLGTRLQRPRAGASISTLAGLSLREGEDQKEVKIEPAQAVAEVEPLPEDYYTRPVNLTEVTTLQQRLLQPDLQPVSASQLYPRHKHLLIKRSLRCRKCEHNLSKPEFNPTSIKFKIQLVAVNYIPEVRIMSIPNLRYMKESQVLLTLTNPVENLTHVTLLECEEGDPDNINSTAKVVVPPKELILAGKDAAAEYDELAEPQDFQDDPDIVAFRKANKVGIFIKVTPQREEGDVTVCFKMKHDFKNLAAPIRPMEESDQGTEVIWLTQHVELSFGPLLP

Take “Arp1, actin-related protein of the dynactin minifilament (natural protein)”: the stoichiometry N (Arp1 per dynamitin) in assay [1] is 1.97. In the case of “Arp11, novel actin-related protein of the dynactin pointed-end complex (from UniProt Q3ZBD2 1-417) (natural protein)”, the stoichiometry N – broadly, the number of molecules, sites or subunits per partner or assembly – in assay [2] (scale: Arp11 per 1 p62) is 1. In turn, “dynamitin (p50) subunit of dynactin, endogenous bovine (from UniProt Q3ZCF0 1-403) (natural protein)” returned a stoichiometry N in assay [3] (scale: dynamitin per 2 p150) of 2. “p24 subunit of dynactin (from UniProt Q0P5A1 1-186) (natural protein)” returned a stoichiometry N (p24 per 2 p150^Glued) in assay [3] of 2. Also, the stoichiometry N in assay [3] (scale: p24 per 2 p150) is 1.

In the case of “p25 subunit of dynactin (from UniProt Q9QZB9 1-182) (natural protein)”, the stoichiometry N in assay [2] (scale: p25 per 1 p62) came out at 1.

Regarding “p27 subunit of dynactin (from UniProt Q148G7 1-190) (natural protein)”, in assay [2] (scale: p27 per 1 p62), the stoichiometry N is 1.
